Experimental data reported in paper PMC4944209 (Journal of structural biology, 2016).

Target: the molecule itself
Test: cryo-EM structure

B1: OmpF, β-barrel channel protein from the outer membrane of E. coli (natural protein, UniProt P02931 23-362, looked up)
chain: AEIYNKDGNKVDLYGKAVGLHYFSKGNGENSYGGNGDMTYARLGFKGETQINSDLTGYGQWEYNFQGNNSEGADAQTGNKTRLAFAGLKYADVGSFDYGRNYGVVYDALGYTDMLPEFGGDTAYSDDFFVGRVGGVATYRNSNFFGLVDGLNFAVQYLGKNERDTARRSNGDGVGGSISYEYEGFGIVGAYGAADRTNLQEAQPLGNGKKAEQWATGLKYDANNIYLAANYGETRNATPITNKFTNTSGFANKTQDVLLVAQYQFDFGLRPSIAYTKSKAKDVEGIGDVDLVNYFEVGATYYFNKNMSTYVDYIINQIDSDNKLGVGSDDTVAVGIVYQF
  stoichiometry N: 3
